Measurements from the supplement of paper PMC12042874.
± gives the uncertainty stated by the source.

Experiment: amyloid nucleation score (Sup35N fusion, yeast selection) (log enrichment); library NNK2; higher = more nucleation; inactive = no reads after selection
In short: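 Output and input plasmid inserts were sequenced by Illumina after psi-negative yeast carrying Sup35N fused to peptides of 20 random codons had been induced 24 hours with 100 μM copper sulfate and grown 7 days at 30°C on medium lacking adenine and uracil. The nucleation score is the DiMSum log enrichment of output over input reads, centred on the mode score of non-aggregating sequences. Sequences with under 100 input reads were excluded.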

| Substance | amyloid nucleation score |
| --- | --- |
| IGCSWSKQELVISNLLVFLF | -1.52 ± 0.62 |
| IGILSREGYWGGNRFLGYQL | -1.32 ± 0.62 |
| IGKGRFNVYCMN | -0.64 ± 0.79 |
| IGSRSMNYWLVVFD | 1.48 ± 0.11 |
| IGSWVVEFGRFGYCFHGVID | 3.19 ± 0.089 |
| IGTMVEREKL | 0.299 ± 0.39 |
| IHDALTRCEWGSVSPRSSGC | 0.682 ± 0.28 |
| IHKETGLEIVARRKVHFDGG | 0.524 ± 0.26 |
| IHLPKCISVSFRVSVGFLDM | inactive |
| IHNPLVRY | -0.366 ± 0.41 |
| IICNLKISSMQDKGVMQAVF | -0.871 ± 0.28 |
| IICSNRQIRFKKGDFFIVFW | inactive |
| IIFPGCKYLRYKDKEK | inactive |
| IIILYCGRYLINWTFLSCAY | inactive |
| IIPLMLFSTLWGFKVHMKGY | -0.207 ± 0.55 |
| IIPRMLDMPLSVWQEIIRFW | 0.45 ± 0.5 |
| IITIYLLAELNSVSVTSTSI | 5.138 ± 0.03 |
| IIVGATKMLCCFHVMMVYAP | 0.472 ± 0.8 |
| IIYYMTVCQDSIDRIVPFCN | 2.01 ± 0.14 |
| IKAFWS | inactive |
| IKLDIYNWAFSFNWFDK | 6.05 ± 0.075 |
| IKNLRNQGK | -0.745 ± 0.61 |
| IKRSTNISEMWHYSFGVTVL | -1.09 ± 0.63 |
| IKVDSAWETIAVVM | 0.246 ± 0.33 |
| ILADINL | inactive |

| Substance | amyloid nucleation score |
| --- | --- |
| ILAITRINA | 1.19 ± 0.13 |
| ILDLWIVESKCFTSNMLHWV | -0.424 ± 0.76 |
| ILGSARYIVCGQVSEMRSAG | 0.367 ± 0.49 |
| ILHPADQNSCT | -1.26 ± 0.34 |
| ILIKYVLAPWSSSLTVWGKA | -0.365 ± 0.3 |
| ILKSRSLVRFHFFSIGASCA | 0.427 ± 0.41 |
| ILPISVLVDHINWSDPYFIM | 0.035 ± 1 |
| ILPYGVWTRIASIKLK | 0.789 ± 0.17 |
| ILQYN | -1.49 ± 0.62 |
| ILSARRCFAQMVFVLYQNLV | -0.171 ± 0.33 |
| ILSFTGASNFVCYMIVAKAG | 6.386 ± 0.033 |
| ILSLEDLSLVRYGAIDS | -0.483 ± 1.1 |
| ILSTVTDSSCNIACSCNNN | 8.363 ± 0.047 |
| ILVLW | -0.022 ± 0.46 |
| ILWPLHVWYVICYRSNMWSY | 5.27 ± 0.077 |
| ILYMTDKLDQSSCLGLMSSH | -1.81 ± 0.78 |
| IMASLRMKDANCLSCTCYNR | 6.798 ± 0.027 |
| IMCRRG | 0.698 ± 0.52 |
| IMMLEVDDLYGIEQSTFWK | -0.33 ± 0.64 |
| IMPNLAPGCRIRAIVND | -0.006 ± 0.29 |
| IMWRTERINNYVDSV | -0.846 ± 0.45 |
| IMYPLRNLAQDFLGDSVSYL | -1.07 ± 0.62 |
| INGSYSGYLERFGGMLRWMV | 0.753 ± 0.52 |
| INIIMFNVFINLEHIYYSVG | 5.79 ± 0.066 |
| INIMARIWLQSVWLSVGRKS | 0.097 ± 0.79 |

| Substance | amyloid nucleation score |
| --- | --- |
| INISCLKVGALSKGTRLFR | 2.14 ± 0.068 |
| INLISSYHFGELTCATSYWR | 4.77 ± 0.09 |
| INLRIVSPIDLIVRWEDPTW | -1.44 ± 0.33 |
| INMGMYDSNVCDA | -0.034 ± 0.65 |
| INPSWVSCVHFM | 0.062 ± 0.74 |
| INSAGNLPQERTVLGYFHCS | -1.44 ± 0.62 |
| INSITKSVGGQRGARRY | 2.25 ± 0.21 |
| INSLTKAVYYSSHYYPVSLS | inactive |
| INVAQALLSAPA | 3.81 ± 0.062 |
| IPILSFMRGLALSRSATYMS | inactive |
| IPLVKCRSCRRCNN | 0.412 ± 0.5 |
| IPRGLFCLLYNVVKEYFVLR | 0.198 ± 0.4 |
| IPVYVAVIVG | inactive |
| IQLIQML | 0.27 ± 0.57 |
| IRADIHKLHLTIIYFKPPLV | -0.47 ± 0.78 |
| IRCVGRVVFCCNFS | 9.965 ± 0.078 |
| IRDRPHWAGGHLGWPYMWS | 4.1 ± 0.1 |
| IRGSSIEKNRMWHVGLSLTW | -0.809 ± 1.1 |
| IRHNVKRLGATNVW | -0.09 ± 0.76 |
| IRSNLTKKHLKIL | -0.994 ± 0.63 |
| IRSRLFFALLCVYS | -0.861 ± 0.41 |
| IRTLMYISHSAGGYLL | -0.576 ± 0.44 |
| IRTLSFMIANSAL | -1.16 ± 1.1 |
| IRYLYAMVLMDVNDGRYYCK | -1.54 ± 1 |
| ISCGVSLPIANCTMTHIARV | -0.23 ± 0.49 |

| Substance | amyloid nucleation score |
| --- | --- |
| ISCHLFLLALYGWNKCVCSV | 0.114 ± 0.62 |
| ISDAKRNCRCRSLPILIMVW | 0.448 ± 0.24 |
| ISDRSTHQASVLTFSPPDFY | inactive |
| ISDSRLRKCVAPHSRDSGGH | 1.96 ± 0.19 |
| ISGAL | 0.203 ± 0.45 |
| ISGYRWNHVSTFVGIYRVHS | 0.98 ± 0.53 |
| ISPEYVSTALLTECTWRVLR | 0.215 ± 0.46 |
| ISPIESSDRMGGCSLRAILP | -0.66 ± 0.35 |
| ISPLLNVYRDYWLYMF | -1.37 ± 0.75 |
| ISQRNRSIAYYKMSLTRYGF | inactive |
| ITAGVPVFYL | -1.22 ± 1.1 |
| ITCHGVVFSWLTRELLYTGL | -0.702 ± 0.45 |
| ITCIAGWSNLNDYVFYTVAS | inactive |
| ITDGENSFAFLSNRDSS | inactive |
| ITFKISNGVWYLPKRL | 6.629 ± 0.038 |
| ITGTFF | 1.99 ± 0.084 |
| ITNDLSLYYVARVGRTDYHF | 1.13 ± 0.12 |
| ITTAYGGTIEMIRELNVASV | 0.42 ± 0.47 |
| ITVFILDRYFGICV | inactive |
| ITYPVESLYNAWSGGPVTDG | 0.164 ± 0.8 |
| IVDISCI | -0.541 ± 1 |
| IVDSFTYTDVSTGSYLFG | -1.42 ± 0.75 |
| IVFFTECSYSLFRWIMNNVW | -1.4 ± 0.39 |
| IVFPDCSRYKKPHFCYEMVI | inactive |
| IVGCLGDGVRLL | -0.563 ± 0.29 |

| Substance | amyloid nucleation score |
| --- | --- |
| IVHWSLHFMRGKSAYYQYVV | inactive |
| IVKPSRKLKTQGCMKFNAWL | -0.284 ± 0.61 |
| IVLQRVGCFKDAGGNRVWEM | 0.264 ± 0.45 |
| IVLRFFGFMDHSSYRNLFKE | -0.375 ± 1.1 |
| IVQFYYVMQYRFRYCLDRMH | 1.01 ± 0.34 |
| IVRELAVVLKKFYLFALFLR | -0.882 ± 0.62 |
| IVRQIASFGRIRDRTRDDEW | 3.05 ± 0.13 |
| IVRWCLLIIIF | inactive |
| IVSCFTRVN | 5.26 ± 0.059 |
| IVTINGNN | -0.51 ± 0.44 |
| IVVSRMETSIKTCYFVMFHS | -0.421 ± 0.38 |
| IWEVNKVIIQYFPIAFKK | 5.713 ± 0.05 |
| IWFGVYIYFVDFRVILNRLL | inactive |
| IWIKNTSLLLLCRLSHCHNI | inactive |
| IWLTVVESRFVTGVVGECYW | 0.255 ± 0.45 |
| IWRNSANCGASDEAVDSLR | 0.53 ± 0.56 |
| IWSRLVVLRGRAGSDSSKNS | -0.044 ± 0.5 |
| IYAGSSLTLWGDRDNKKCDR | -1.44 ± 1 |
| IYCCISEWSNHTWV | 6.175 ± 0.036 |
| IYFMFVVYDSIHQE | 1.32 ± 0.2 |
| IYHFNFIFNYLMGDPPYRAT | 7.778 ± 0.04 |
| IYIGLCLRDYILDNMALMRQ | -0.721 ± 0.32 |
| IYLTLNGILAICASRAWAAK | 0.094 ± 0.77 |
| IYMGISVCSICYV | 6.34 ± 0.071 |
| IYNMVSCIIDLCYDKTRHSR | 3.85 ± 0.12 |
